# In patent US6645504B1, “Bystander suppression of type I diabetes by oral administration of glucagon” (AutoImmune Inc., priority 1987, dated 2003):
# B1: MBP: Guinea pig myelin basic protein purified from brain tissue (protein, UniProt P25188 1-167, looked up)
# Myelin basic protein: ASQKRPSQRHGSKYLATASTMDHARHGFLPRHRDTGILDSIGRFFGSDRAAPKRGSGKDSHHAARTTHYGSLPQKSQRSQDENPVVHFFKNIVTPRTPPPSQGKGRGLSLSRFSWGAEGQKPGFGYGGRADYKSKGFKGAHDAQGTLSKIFKLGGRDSRSGSPMARR
# Legend:
# [1] = system: EAE; assay: EAE after MBP/CFA immunization with oral tolerization and in vivo anti-TGF-β antiserum; parameters: species or system Lewis rats; conditions: orally tolerized animals treated 5 times with 50 μl control serum; score 0-5
# [2] = system: DTH responses to MBP; assay: Delayed type hypersensitivity (DTH) testing, Example 1; format: in vivo, Lewis rats; conditions: orally tolerized animals injected 5 times with 50 μl control serum; 48 hours after MBP challenge
# Method: Delayed Type Hypersensitivity (DTH) Testing. DTH was tested by injecting 25 μg of MBP in PBS subcutaneously in the ear. Thickness was measured before and 48 hours after challenge, by a blinded observer, using micrometer calipers (Mitutoyo, Japan). Change in ear thickness pre- and post-challenge was recorded for each animal and the result expressed as the mean for each experimental group ±SEM.
# Delayed-type hypersensitivity (DTH) responses correlate with the clinical course of EAE and serve as a measure of in vivo cellular immunity to MBP (Brod, S. A. et al. Ann. Neurol. 29:615-622, 1991; Khoury, S. J. et al. Cell. Immunol. 131:302-310, 1990). DTH responses were tested in the same groups described in FIG. 4 by injecting 25 μg of MBP in PBS subcutaneously in the ear. Thickness was measured before and 48 hours after challenge. The change in ear thickness pre- and post-challenge was recorded for each animal and the results expressed as the mean for each experimental group ± SEM.
# [3] = system: DTH responses to MBP or OVA; assay: Delayed type hypersensitivity (DTH) testing, Example 2; format: in vivo, Lewis rats; conditions: fed antigen, then immunized with MBP/CFA plus OVA; FIG. 7
# Method: Delayed Type Hypersensitivity (DTH) Testing. DTH was tested by injecting 50 μg of MBP or OVA in PBS, subcutaneously into the ear. MBP was injected in the left ear and OVA in the right ear in the same animal. Thickness, in units of 0.01 inch, was measured in a blinded fashion, before and 48 hours after challenge, using micrometer calipers (Mitutoyo, Utsunomia, Japan). Change in ear thickness before and after challenge was recorded for each animal, and results were expressed as the mean for each experimental group ± SEM; each group consisted of five animals.
# [4] = system: MBP line; assay: Transwell culture suppression of MBP T cell line; format: cell-based, Lewis rats
# Excerpt: Transwell Cultures. A dual chamber transwell culture system (Costar, Cambridge, Mass.), which is 24.5 mm in diameter and consists of two compartments separated by a semi-permeable polycarbonate membrane, with a pore size of 0.4 μm, was used. The two chambers are 1 mm apart, allowing cells to be coin-cubated in close proximity without direct cell-to-cell contact. To measure in vitro suppression of proliferative responses in transwell cultures, 5×10^4 MBP- or OVA-specific line cells, raised and maintained as previously described (Ben-Nun, A. et al., Eur. J. Immunol. 11:195, 1981), were cultured with 10^6 irradiated (2,500 rad) thymocytes, in 600 μl of proliferation media in the lower well. Spleen cells from orally tolerized rats or controls (fed BSA) were added to the upper well (5×10^5 cells in 200 μl). Spleen cells were removed 7-14 days after the last feeding, and a single cell suspension was prepared by pressing the spleens through a stainless steel mesh. MBP and OVA (50 μg/ml) were added in a volume of 20 μl. […] In some experiments, modulator cells were added in the lower well together with responder cells, and in these instances modulator cells were irradiated (1,250 rad) immediately before being placed in culture. Proliferation media consisted of RPMI 1640 (Gibco Laboratories, Grand Island, N.Y.) supplemented with […] 2-mercaptoethanol, 1% sodium pyruvate, 1% penicillin and streptomycin, 1% glutamine, 1% HEPES buffer, 1% nonessential amino acids, and 1% autologous serum. Each transwell was performed in quadruplicate. The transwells were incubated at 37° C. in a humidified 6% CO2 and 94% air atmosphere for 72 hours. After 54 hours of culture, each lower well was pulsed with 4 μCi of [^3H]thymidine and at 72 hours split and reseeded to three wells in a round-bottomed 96-well plate (Costar) for harvesting onto fiberglass filters and counting using standard liquid scintillation techniques. Percent suppression =100×(1−Δ A cpm responders cultured with modulators/Δ cpm of responders).
# [5] = irradiated modulators in lower well with MBP line + MBP 50 μg/ml
# [6] = modulators in upper well, MBP line + MBP in lower well
molecule,measurement,setting,value
B1,maximal disease severity,[1],1.0±0.2
same,DTH response (change in ear thickness),[2],0.5±0.3
same,DTH responses to MBP,[3],Suppressed DTH responses to MBP
same,Percent Suppression,[4]; [5],51%
same,Δ cpm,[4]; [5],"18,412 ± 1,867 cpm"
same,Percent Suppression,[4]; [6],59%
same,Δ cpm,[4]; [6],"15,620 ± 2,294 cpm"
